Test results reported in patent US20060121042A1 (AstraZeneca / MedImmune, published 2006).

T1: r murine EphA3 (mouse, UniProt P29319)
T1 construct: recombinant Fc fusion (R&D Systems); also called rmuEphA3-Fc; mEphA3
T1 sequence (receptor-Fc fusion, looked up): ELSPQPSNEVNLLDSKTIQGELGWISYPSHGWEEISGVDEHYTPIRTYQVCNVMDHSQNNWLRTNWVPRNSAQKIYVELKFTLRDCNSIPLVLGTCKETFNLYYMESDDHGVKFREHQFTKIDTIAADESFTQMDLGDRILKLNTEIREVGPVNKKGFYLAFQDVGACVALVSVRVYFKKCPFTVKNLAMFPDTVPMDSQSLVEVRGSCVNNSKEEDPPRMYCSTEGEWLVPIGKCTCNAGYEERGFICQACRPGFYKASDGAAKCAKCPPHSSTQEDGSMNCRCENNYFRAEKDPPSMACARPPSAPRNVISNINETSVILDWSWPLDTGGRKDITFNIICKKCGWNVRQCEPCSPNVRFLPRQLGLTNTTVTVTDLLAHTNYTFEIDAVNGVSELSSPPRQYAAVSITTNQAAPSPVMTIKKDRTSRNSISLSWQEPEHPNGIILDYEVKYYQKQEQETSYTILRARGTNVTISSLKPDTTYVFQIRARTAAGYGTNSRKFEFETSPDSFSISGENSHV

T2: r murine EphA7 (mouse, UniProt Q61772)
T2 construct: recombinant Fc fusion (R&D Systems); also called rmuEphA7-Fc; mEphA7
T2 sequence (receptor-Fc fusion, looked up): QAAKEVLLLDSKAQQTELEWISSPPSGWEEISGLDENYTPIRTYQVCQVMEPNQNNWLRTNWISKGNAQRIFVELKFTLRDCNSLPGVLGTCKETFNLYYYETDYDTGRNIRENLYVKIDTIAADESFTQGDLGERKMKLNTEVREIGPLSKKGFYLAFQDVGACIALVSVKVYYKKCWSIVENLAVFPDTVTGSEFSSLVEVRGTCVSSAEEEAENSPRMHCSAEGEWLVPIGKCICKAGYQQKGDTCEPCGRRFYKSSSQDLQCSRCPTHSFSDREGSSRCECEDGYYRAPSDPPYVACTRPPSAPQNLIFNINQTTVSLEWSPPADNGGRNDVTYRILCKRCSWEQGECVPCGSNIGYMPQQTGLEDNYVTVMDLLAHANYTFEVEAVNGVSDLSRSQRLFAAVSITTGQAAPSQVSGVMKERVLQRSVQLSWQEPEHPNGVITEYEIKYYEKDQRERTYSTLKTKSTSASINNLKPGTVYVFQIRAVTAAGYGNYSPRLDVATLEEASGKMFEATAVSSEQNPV

T3: mEphA3 (mouse, UniProt P29319)
T3 construct: part of an Fc fusion; also called rmuEphA3-Fc
T3 sequence (receptor-Fc fusion, looked up): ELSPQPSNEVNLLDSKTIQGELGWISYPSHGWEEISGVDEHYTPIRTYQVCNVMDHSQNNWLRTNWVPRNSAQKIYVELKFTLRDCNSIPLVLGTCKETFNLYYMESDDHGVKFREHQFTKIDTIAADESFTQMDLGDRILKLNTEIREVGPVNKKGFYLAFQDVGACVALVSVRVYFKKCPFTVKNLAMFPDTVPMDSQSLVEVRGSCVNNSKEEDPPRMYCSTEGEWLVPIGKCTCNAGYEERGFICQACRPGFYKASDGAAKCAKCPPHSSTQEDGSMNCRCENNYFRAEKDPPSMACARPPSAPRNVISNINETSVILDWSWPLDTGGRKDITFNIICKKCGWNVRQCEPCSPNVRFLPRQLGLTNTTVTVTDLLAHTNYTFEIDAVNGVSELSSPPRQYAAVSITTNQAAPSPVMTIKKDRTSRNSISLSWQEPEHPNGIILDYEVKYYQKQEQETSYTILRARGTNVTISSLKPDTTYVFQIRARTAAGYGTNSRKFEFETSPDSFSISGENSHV

T4: mEphA7 (mouse, UniProt Q61772)
T4 construct: part of an Fc fusion; also called rmuEphA7-Fc
T4 sequence (receptor-Fc fusion, looked up): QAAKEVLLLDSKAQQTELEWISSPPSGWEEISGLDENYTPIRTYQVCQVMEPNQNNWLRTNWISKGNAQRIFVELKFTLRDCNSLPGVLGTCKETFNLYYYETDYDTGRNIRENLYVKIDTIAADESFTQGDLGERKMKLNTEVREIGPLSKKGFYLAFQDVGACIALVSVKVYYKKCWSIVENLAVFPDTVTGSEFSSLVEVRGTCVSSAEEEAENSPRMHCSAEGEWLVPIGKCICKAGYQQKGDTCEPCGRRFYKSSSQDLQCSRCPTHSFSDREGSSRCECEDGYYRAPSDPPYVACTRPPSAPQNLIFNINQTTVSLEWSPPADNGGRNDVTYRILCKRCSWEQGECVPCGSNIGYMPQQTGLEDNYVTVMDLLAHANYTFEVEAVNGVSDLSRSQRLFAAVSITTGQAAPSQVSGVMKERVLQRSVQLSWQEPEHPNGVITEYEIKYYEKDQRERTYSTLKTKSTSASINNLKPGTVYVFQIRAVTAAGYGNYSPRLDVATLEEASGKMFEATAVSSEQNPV


How the values were obtained:
r murine EphA3 [1] = molecular target: T1, r murine EphA3; experiment: activity ELISA, Fab on coated antigen
Procedure: (§1) More precisely, Nunc Maxisorp plates were coated with the following rEphA proteins: rhuEphAl-Fc, rmuEphA2-Fc, rmuEphA3-Fc, rmuEphA4-Fc, rratEphA5-Fc, rmuEphA6-Fc, rmuEphA7-Fc, rEphA8; all at 0.5 μg/well (all R&D Systems) rhuEphA2-Fc; 0.5 μg/well, and rhuEphA4-His; 0.1 μg/well (both produced at MedImmune, Inc.). Plates were blocked with 3% BSA+0.1% Tween20 for 2 h. […] Incubation with a goat anti-human kappa horseradish peroxydase (HRP) conjugate then followed. HRP activity was detected with TMB substrate and the reaction quenched with 0.2 M H₂SO₄. Plates were read at 450 nm. Data was analyzed by normalizing Fab concentrations to the corresponding activity data (see FIGS. 10B-10H).

r murine EphA4 [2] = molecular target: T5, r murine EphA4 (mouse, UniProt Q03137); experiment: activity ELISA, Fab on coated antigen
T5 construct: recombinant Fc fusion (R&D Systems); also called rmuEphA4-Fc; mEphA4
T5 sequence (Q03137 20-547 limits assumed): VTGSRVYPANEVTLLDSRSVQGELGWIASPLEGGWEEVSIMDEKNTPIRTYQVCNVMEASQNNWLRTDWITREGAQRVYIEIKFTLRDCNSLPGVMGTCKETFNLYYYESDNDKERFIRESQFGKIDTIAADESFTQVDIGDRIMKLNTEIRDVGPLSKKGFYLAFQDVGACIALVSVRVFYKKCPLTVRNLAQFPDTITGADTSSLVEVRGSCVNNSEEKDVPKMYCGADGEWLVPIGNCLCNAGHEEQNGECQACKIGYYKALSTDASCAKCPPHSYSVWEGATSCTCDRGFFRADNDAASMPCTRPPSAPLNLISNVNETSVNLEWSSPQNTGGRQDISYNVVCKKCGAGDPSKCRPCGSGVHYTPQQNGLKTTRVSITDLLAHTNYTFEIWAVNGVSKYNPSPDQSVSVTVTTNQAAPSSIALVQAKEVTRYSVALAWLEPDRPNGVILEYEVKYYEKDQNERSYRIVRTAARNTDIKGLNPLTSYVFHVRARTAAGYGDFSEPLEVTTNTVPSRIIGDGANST
Procedure: as §1

r murine EphA7 [3] = molecular target: T2, r murine EphA7; experiment: activity ELISA, Fab on coated antigen
Procedure: as §1

[4] = molecular target: T6, human EphA4 (construct not given) (human, UniProt P54764 20-547, limits assumed); experiment: capture ELISA, 25 ng/well sheep anti-human Fd
T6 construct: also called EphA4 receptor
T6 sequence (P54764 20-547 limits assumed): as the sequence (Q03137 20-547 limits assumed) above, with A59P, S121N, G124V, Q250R, N251S, S270T, R378K, S406N counted along it

r murine EphA3 [5] = molecular target: T1, r murine EphA3; experiment: activity ELISA, IgG on coated antigen
Procedure: (§2) Secondary screening of IgG constructs of affinity optimized combinatorial variants with additional EphA receptors: With purified IgG constructs of the nine combinatorial variants, additional secondary screening assays were performed using the Activity ELISA (see above) and recombinant EphA receptor proteins. More precisely, Nunc Maxisorp plates were coated with the following rEphA proteins: rhuEphAl-Fc; 0.5 μg/well, rmuEphA2-Fc; 0.5 μg/well, rmuEphA3-Fc: 0.1 μg/well, rmuEphA4-Fc; 0.1 μg/well, rratEphA5-Fc; 0.5 μg/well, rmuEphA6-Fc; 0.5 μg/well, rmuEphA7-Fc; 0.1 μg/well, rEphA8; 0.2 μg/well (all R&D Systems), rhuEphA2-Fc; 0.5 μg/well, and rhuEphA4-His; 0.1 μg/well (both produced at MedImmune, Inc.). Plates were blocked with 3% BSA+0.1% Tween20 for 2 h. […] Incubation with a goat anti-human kappa horseradish peroxydase (HRP) conjugate then followed. HRP activity was detected with TMB substrate and the reaction quenched with 0.2 M H₂SO₄. Plates were read at 450 nm. Data was analyzed by normalizing Fab concentrations to the corresponding activity data (see FIGS. 12A-12J and 14).

r murine EphA4 [6] = molecular target: T5, r murine EphA4; experiment: activity ELISA, IgG on coated antigen
Procedure: as §2

r murine EphA7 [7] = molecular target: T2, r murine EphA7; experiment: activity ELISA, IgG on coated antigen
Procedure: as §2

[8] = molecular target: T7, Human EphA4-Fc fusion protein (human, UniProt P54764 20-547); experiment: BIAcore, IgG immobilized on the sensor chip, EphA4-Fc as analyte
T7 construct: not shown: Fc portion of a human IgG1
T7 sequence (P54764 20-547): as the sequence (Q03137 20-547 limits assumed) above, with A59P, S121N, G124V, Q250R, N251S, S270T, R378K, S406N counted along it
Procedure: (§3) FIG. 15A-15B. […] Binding affinities were measured using the BIAcore assay. […] Variant kinetic measurements for human EphA4 and were obtained using BIAcore with immobilized variant antibodies and human EphA4-Fc and EphA4-His as analytes.

[9] = molecular target: T8, Human EphA4-His fusion protein (human, UniProt P54764 20-547); experiment: BIAcore, IgG immobilized on the sensor chip, EphA4-his as analyte
T8 construct: also called rhuEphA4-His; not shown: Histidine tag
T8 sequence (P54764 20-547): as the sequence (Q03137 20-547 limits assumed) above, with A59P, S121N, G124V, Q250R, N251S, S270T, R378K, S406N counted along it
Procedure: as §3

mEphA3 = molecular target: T3, mEphA3; experiment: ELISA, receptor coated on the plate, purified IgG, anti-human kappa-HRP
Procedure: as §2

mEphA4 = molecular target: T9, mEphA4 (mouse, UniProt Q03137); experiment: as above
T9 construct: part of an Fc fusion; also called rmuEphA4-Fc
T9 sequence (Q03137 20-547 limits assumed): as the sequence (Q03137 20-547 limits assumed) above
Procedure: as §2

mEphA7 = molecular target: T4, mEphA7; experiment: as above
Procedure: as §2

[10] = molecular target: T8, Human EphA4-His fusion protein; experiment: BIAcore, IgG immobilized on the sensor chip, EphA4-his as analyte; comment on the sheet: marginal fit
Procedure: as §3

[11] = molecular target: T7, Human EphA4-Fc fusion protein; experiment: BIAcore, IgG immobilized on the sensor chip, EphA4-Fc as analyte; comment on the sheet: marginal kinetic fit
Procedure: as §3

Binder	fold increase in affinity over Fab20 parental background [4] [fold]	binding result (r murine EphA3 [5])	binding result (r murine EphA4 [6])	binding result (r murine EphA7 [7])	Kd [8] [nM]	koff [8] [s⁻¹]	kon [8] [M⁻¹ s⁻¹]	binding result (mEphA3)	binding result (mEphA4)	binding result (mEphA7)	other results
1G11 Fab (affinity optimized combinatorial variant of Fab20) (Fab, V domains shown) VH: QVQLLQSGAEVKKPGASVKVPCKASGYTFTSRAMSWVRQAPGQGLEWMGWINTNTGNPTYAQGFTGRFVFSLDTSVSTAYLQISSLKAEDTAVYYCARVRFTVYGDGMDVWGQGTLVTVSS VL: EIVLTQSPATLSVSPGERATLSCRASQSVSSNLPWYQQKPGQAPRLLIYGASTRPTGIPDRFSASGSGTDFTLTISRVEPEDFAVYYCQQYGPSWTFGQGTKVEIK	–	–	–	–	–	–	–	–	–	–	binding result (r murine EphA3 [1]): binds; binding result (r murine EphA4 [2]): binds; binding result (r murine EphA7 [3]): binds
11G6 Fab (affinity optimized CDR3 heavy variant of Fab20) (Fab, V domains shown) VH: QVQLLQSGAEVKKPGASVKVPCKASGYTFTSYAMSWVRQAPGQGLEWMGWINTNTGNPTYAQGFTGRFVFSLDTSVSTAYLQISSLKAEDTAVYYCARVRFTVYGDGMDVWGQGTLVTVSS VL: EIVLTQSPATLSVSPGERATLSCRASQSVSSNLAWYQQKPGQAPRLLIYGASTRATGIPDRFSASGSGTDFTLTISRVEPEDFAVYYCQQYGSSWTFGQGTKVEIK	1.6	–	–	–	–	–	–	–	–	–	–
1A4 IgG1 (affinity optimized combinatorial variant of mAb GEA44 in human IgG1 format) (antibody, V domains shown) VH: QVQLLQSGAEVKKPGASVKVPCKASGYTFTSRAMSWVRQAPGQGLEWMGWINTNTGNPTYAQGSTGRFVFSLDTSVSTAYLQISSLKAEDTAVYYCARVRFTVYGDGMDVWGQGTLVTVSS VL: EIVLTQSPATLSVSPGERATLSCRASQSVSSNPAWYQQKPGQAPRLLIYGASTRATGIPDRFSASGSGTDFTLTISRVEPEDFAVYYCQQYGPSWTFGQGTKVEIK	–	binds	binds	binds	0.037	2.87e-05	769000	binds	binds	binds	Kd [9]: 0.8 nM; koff [9]: 0.000345 s⁻¹; kon [9]: 431000 M⁻¹ s⁻¹
11H1 Fab (single-change CDR3 heavy variant of Fab20) (Fab, V domains shown, also called GEA44 derivative 11H1) VH: QVQLLQSGAEVKKPGASVKVPCKASGYTFTSYAMSWVRQAPGQGLEWMGWINTNTGNPTYAQGFTGRFVFSLDTSVSTAYLQISSLKAEDTAVYYCARVRLTVYGDGMDVWGQGTLVTVSS VL: EIVLTQSPATLSVSPGERATLSCRASQSVSSNLAWYQQKPGQAPRLLIYGASTRATGIPDRFSASGSGTDFTLTISRVEPEDFAVYYCQQYGSSWTFGQGTKVEIK	1.4	–	–	–	–	–	–	–	–	–	–
1B10 IgG1 (affinity optimized combinatorial variant of mAb GEA44 in human IgG1 format) (antibody, V domains shown) VH: QVQLLQSGAEVKKPGASVKVPCKASGYTFTSRAMSWVRQAPGQGLEWMGWINTNTGNPTYAQGFTGRFVFSLDTSVSTAYLQISSLKAEDTAVYYCARVRFTVYGDGMDVWGQGTLVTVSS VL: EIVLTQSPATLSVSPGERATLSCRASQSVSSNPAWYQQKPGQAPRLLIYGASTWATGIPDRFSASGSGTDFTLTISRVEPEDFAVYYCQQYGPSWTFGQGTKVEIK	–	–	binds	binds	–	–	–	–	binds	binds	Kd [10]: 1 nM; koff [10]: 0.000602 s⁻¹; kon [10]: 600000 M⁻¹ s⁻¹; Kd [11]: 0.023 nM; koff [11]: 5.41e-05 s⁻¹; kon [11]: 2.33e+06 M⁻¹ s⁻¹
1G11 IgG1 (affinity optimized combinatorial variant of mAb GEA44 in human IgG1 format) (antibody, V domains shown) VH: QVQLLQSGAEVKKPGASVKVPCKASGYTFTSRAMSWVRQAPGQGLEWMGWINTNTGNPTYAQGFTGRFVFSLDTSVSTAYLQISSLKAEDTAVYYCARVRFTVYGDGMDVWGQGTLVTVSS VL: EIVLTQSPATLSVSPGERATLSCRASQSVSSNLPWYQQKPGQAPRLLIYGASTRPTGIPDRFSASGSGTDFTLTISRVEPEDFAVYYCQQYGPSWTFGQGTKVEIK	–	binds	binds	binds	0.059	1.01e-05	172000	binds	binds	binds	–
